Test results reported in US20210139542A1.

Tests used:
HEWL-Hel-104 (hen) [1] = molecular target: HEWL-Hel-104 (hen) (UniProt P00698); assay: BLI, mAb on AHC biosensor, 100 nM antigen
HEWL-Hel-102 (hen) [2] = molecular target: HEWL-Hel-102 (hen) (UniProt P00698); assay: BLI, mAb on AHC biosensor, 100 nM antigen
HEWL-Hel-1024 (hen) [3] = molecular target: HEWL-Hel-1024 (hen) (UniProt P00698); assay: BLI, mAb on AHC biosensor, 100 nM antigen
HEWL-Hel-1012 (hen) [4] = molecular target: HEWL-Hel-1012 (hen) (UniProt P00698); assay: BLI, mAb on AHC biosensor, 100 nM antigen
HEWL-Full12 (hen) [5] = molecular target: HEWL-Full12 (hen) (UniProt P00698); assay: BLI, mAb on AHC biosensor, 100 nM antigen, footnote e bounds the value
HEWL-Full24 (hen) [6] = molecular target: HEWL-Full24 (hen) (UniProt P00698); assay: as above
[7] = molecular target: Hen Egg White Lysozyme (HEWL), wild type (hen) (UniProt P00698); assay: BLI, mAb on AHC biosensor, 100 nM antigen
[8] = molecular target: Hen Egg White Lysozyme (HEWL), wild type (hen) (UniProt P00698); assay: ELISA, HEWL derivative coated, antibody in tenfold dilutions, A450
HEWL-Hel-104 (hen) [9] = molecular target: HEWL-Hel-104 (hen) (UniProt P00698); assay: BLI, mAb on AHC biosensor, 100 nM antigen, footnote c bounds the value
HEWL-Hel-102 (hen) [10] = molecular target: HEWL-Hel-102 (hen) (UniProt P00698); assay: as above
HEWL-Full12 (hen) [11] = molecular target: HEWL-Full12 (hen) (UniProt P00698); assay: as above
HEWL-Full24 (hen) [12] = molecular target: HEWL-Full24 (hen) (UniProt P00698); assay: as above
HEWL-Hel-1024 (hen) [13] = molecular target: HEWL-Hel-1024 (hen) (UniProt P00698); assay: as above
HEWL-Hel-1012 (hen) [14] = molecular target: HEWL-Hel-1012 (hen) (UniProt P00698); assay: as above

Sequence of UniProt P00698 (P00698 19-147 limits assumed): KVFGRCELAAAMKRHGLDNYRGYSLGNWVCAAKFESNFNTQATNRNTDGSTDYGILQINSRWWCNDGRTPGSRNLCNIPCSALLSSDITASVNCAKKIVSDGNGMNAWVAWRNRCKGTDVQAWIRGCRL

HyHEL-10 (antibody)
Kd (HEWL-Hel-104 (hen) [1]): 0.091 nM
Kd (HEWL-Hel-102 (hen) [2]): 0.068 nM
Kd (HEWL-Hel-1024 (hen) [3]): 0.26 nM
Kd (HEWL-Hel-1012 (hen) [4]): 0.055 nM

D1.3 (antibody)
Kd (HEWL-Full12 (hen) [5]): 27 nM
Kd (HEWL-Full24 (hen) [6]): 11 nM
Kd [7]: 0.58 nM
Kd (HEWL-Hel-1024 (hen) [3]): 11 nM

D11.15 (antibody)
EC50 (read off the curve) [8]: 0.5 nM
Kd [7]: 2.3 nM

HyHEL-5 (antibody)
Kd (HEWL-Hel-104 (hen) [9]): 0.14 nM
Kd (HEWL-Hel-102 (hen) [10]): 0.12 nM
Kd (HEWL-Full12 (hen) [11]): 0.36 nM
Kd (HEWL-Full24 (hen) [12]): 0.17 nM
Kd (HEWL-Hel-1024 (hen) [13]): 0.2 nM
Kd (HEWL-Hel-1012 (hen) [14]): 0.11 nM
Kd [7]: 0.018 nM
